This is an account of results in the RNAGym collection of RNA variant scans (doi:10.7554/elife.90254).

Sequences and labels used below:
B1: OR4K15 (parent)
chain: GUUAACGGUCAUAGGCCAUGGAAACUAGGAGCACCAUUUCGCUGCCAGUGAAGAAAUGAACAAAGAAAAUCUGGGCCAGGCAGGCAUCAAAAGAAAUAGUCUUGCGCUCAACCAGAAAGUCUGUAAUCAUUUUAAGGGUA

This data set covers variants of B1. As to the kind of experiment: self-cleavage, relative activity (ratio to wild type); higher = more cleavage; in vitro, sequencing; the parent is a self-cleaving ribozyme.
As for A36U A95G, the self-cleavage was found to be 2.18.

In the case of U37C U87C, the self-cleavage worked out at 0.99.

On to U38A U57C, for which the self-cleavage was determined as 0.69.

On to A36U U131C, for which the self-cleavage was found to be 1.87.

For the variant U37C U132C, the self-cleavage turned out to be 1.54.

In the case of U37C U132A, the self-cleavage was 1.34.

Consider U38C A69G, for which the self-cleavage was 0.88.

U38C A68U: the self-cleavage was 2.15.

With U37C G75A, the self-cleavage came to 0.08.

For the variant U37A A126G, the self-cleavage came to 0.44.

With U37C A134G, the self-cleavage was determined as 1.32.

As for U37G A90G, the self-cleavage was 0.38.

In the case of U38A A52G, the self-cleavage was found to be 1.63.

As for U37G A96G, the self-cleavage is 1.97.

Consider U38A A135G, for which the self-cleavage came to 2.17.

Regarding U38A U49C, the self-cleavage came to 1.72.

For U39A A54U, the self-cleavage amounted to 1.18.

U38G A54G: the self-cleavage came out at 1.38.

With U37C G106A, the self-cleavage came to 0.01.

U38C A91G: the self-cleavage turned out to be 1.24.

As to U39A A140G, the self-cleavage worked out at 1.16.

For the variant U39C A78G, the self-cleavage is 0.26.

As for U37C A114G, the self-cleavage came out at 0.34.

Consider U38C C109U, for which the self-cleavage stood at 0.26.

On to U39A G48U, for which the self-cleavage amounted to 1.24.

As to U39C C45U, the self-cleavage came out at 1.46.

As for U39C C45G, the self-cleavage was 1.5.

As to U39C C45A, the self-cleavage amounted to 0.46.

Consider U38C G84A, for which the self-cleavage stood at 2.05.

Turning to U39A A116U, the self-cleavage is 0.09.

Turning to U38C A110U, the self-cleavage is 1.46.

Consider A36U C61U, for which the self-cleavage is 2.41.

In the case of U37C A90G, the self-cleavage was determined as 1.12.

Turning to U37C A90U, the self-cleavage turned out to be 0.91.

On to U39C A110G, for which the self-cleavage is 0.14.

Consider U37C A92G, for which the self-cleavage amounted to 0.77.

With U39C A96G, the self-cleavage amounted to 1.77.

On to U39C A96U, for which the self-cleavage came out at 1.52.

On to U39C A96C, for which the self-cleavage is 0.78.

Regarding U37G A51G, the self-cleavage came to 1.31.

As to U37C A135U, the self-cleavage stood at 2.17.

For U39A A135G, the self-cleavage is 1.75.

As to U38C A66G, the self-cleavage is 1.97.

For the variant U38C A66U, the self-cleavage came to 1.32.

With U38A G74A, the self-cleavage worked out at 0.21.

Turning to U39C A64G, the self-cleavage was determined as 1.88.

With U39C A55G, the self-cleavage came out at 1.66.

With U39A A117U, the self-cleavage was determined as 1.81.

As for U37C U102C, the self-cleavage was 1.49.

Regarding U39C A63G, the self-cleavage is 1.66.

As for U37C A95G, the self-cleavage is 2.37.

In the case of A36U U130C, the self-cleavage was 1.45.

In the case of U39A A66G, the self-cleavage was found to be 1.87.

Take A36U A56G: the self-cleavage was 1.46.

Take A36U A56U: the self-cleavage stood at 1.12.

Regarding U37C A62U, the self-cleavage came out at 1.49.

Take U39A U127A: the self-cleavage was 1.46.

For the variant U37C U38C, the self-cleavage amounted to 1.51.

As for U38A G50A, the self-cleavage is 1.07.

U37G A129G: the self-cleavage amounted to 1.12.

As for U39A A96G, the self-cleavage is 1.56.

For the variant U37C A47G, the self-cleavage is 1.19.

For the variant U38C C61U, the self-cleavage stood at 1.86.

On to U39C G53A, for which the self-cleavage stood at 1.53.

Turning to A36U A82G, the self-cleavage came out at 0.39.

As for U39C A52U, the self-cleavage was 2.16.

With U38C U108A, the self-cleavage was found to be 0.03.

As to U38G C107U, the self-cleavage turned out to be 0.02.

For the variant U39A U49C, the self-cleavage stood at 1.

For the variant A36U A90U, the self-cleavage was found to be 1.74.

Regarding U37C G58A, the self-cleavage was determined as 1.14.

Regarding U38A G75C, the self-cleavage came to 0.03.

Turning to U37C U70A, the self-cleavage stood at 1.1.

Consider U37C A67G, for which the self-cleavage worked out at 0.68.

For the variant U37C U122C, the self-cleavage turned out to be 1.25.

As for U39C A140C, the self-cleavage was 1.79.

Take U37C G84A: the self-cleavage amounted to 1.7.

Consider U37C U57C, for which the self-cleavage was found to be 1.18.

U39A U70C: the self-cleavage is 0.92.

Turning to A36U A78C, the self-cleavage was 0.23.

As to U37C C77U, the self-cleavage was 2.11.

Take U38A U103G: the self-cleavage came out at 0.04.

As to U38A U103C, the self-cleavage is 0.64.

In the case of U38A U87A, the self-cleavage came to 2.41.

In the case of U38A U124A, the self-cleavage stood at 0.87.

Take U37C C128A: the self-cleavage amounted to 0.17.

Take U39A A86G: the self-cleavage was found to be 1.76.

With U39A U122C, the self-cleavage was determined as 1.39.

As to U39C G50U, the self-cleavage turned out to be 1.89.

U37A A59G: the self-cleavage stood at 1.78.

Regarding A36U A117G, the self-cleavage was determined as 1.52.

For the variant A36U A117U, the self-cleavage was 0.88.

Consider U37C U139C, for which the self-cleavage came out at 1.72.

On to A36U A125G, for which the self-cleavage came out at 0.7.

For U38A A56C, the self-cleavage was 1.55.

In the case of U39C A135C, the self-cleavage amounted to 1.38.

Take U37C G104A: the self-cleavage was determined as 0.03.

Turning to U37A A91G, the self-cleavage came to 0.78.

With U37C A69U, the self-cleavage was 1.6.

With U39C C71U, the self-cleavage was found to be 0.29.

As to U39A A89G, the self-cleavage stood at 2.23.

Take U39A A89U: the self-cleavage stood at 2.25.

Consider U38A G137U, for which the self-cleavage was found to be 2.73.

In the case of U38C C101U, the self-cleavage came to 0.35.

In the case of U38C A90U, the self-cleavage amounted to 2.23.

For the variant U39A U102C, the self-cleavage came out at 1.55.

Turning to U38C U139C, the self-cleavage amounted to 0.91.

As for U38C U139A, the self-cleavage was found to be 1.75.

With U37C G74U, the self-cleavage came out at 0.2.

Regarding U37A G137A, the self-cleavage turned out to be 2.24.

As for U37A A69U, the self-cleavage amounted to 1.92.

U37C A68G: the self-cleavage amounted to 1.25.

Turning to U39A G115C, the self-cleavage turned out to be 0.52.

Take U39A G115U: the self-cleavage came out at 0.27.

For the variant U37C A98G, the self-cleavage amounted to 0.8.

As to U37C A98U, the self-cleavage is 1.84.

As for U38C A96G, the self-cleavage is 1.51.

As to U39C C81U, the self-cleavage was determined as 0.63.

On to U37C U130C, for which the self-cleavage was 0.97.

In the case of U37C U130A, the self-cleavage worked out at 0.91.

Regarding U38A A60G, the self-cleavage was determined as 1.32.

Consider U39C C128U, for which the self-cleavage is 1.42.

For the variant U39C C128A, the self-cleavage was determined as 0.73.

As for A36U A135U, the self-cleavage is 1.85.

As for U38G A116G, the self-cleavage is 1.67.

As for U37C A116G, the self-cleavage came to 0.98.

In the case of A36U U72G, the self-cleavage amounted to 0.29.

With U38C A60G, the self-cleavage worked out at 1.44.

With U37A A118G, the self-cleavage turned out to be 1.4.

Regarding U37C G136A, the self-cleavage was determined as 2.23.

For U39C G41A, the self-cleavage amounted to 2.

Take U39C G41U: the self-cleavage was found to be 1.16.

Turning to U38A A59G, the self-cleavage came to 1.14.

Regarding U38G U127C, the self-cleavage was determined as 1.37.

For U37C U39C, the self-cleavage is 1.72.

For the variant U37C A94G, the self-cleavage was 1.76.

As for U38C U43A, the self-cleavage amounted to 2.13.

With U37G A118G, the self-cleavage is 0.99.

U38A A90G: the self-cleavage was 1.18.

Take U37G U87A: the self-cleavage stood at 1.38.

Turning to U37C U43A, the self-cleavage is 1.55.

As for U39A A56G, the self-cleavage came to 1.59.

For U39C A114G, the self-cleavage was 0.72.

With U37A U102C, the self-cleavage is 1.85.

As to U38A A54G, the self-cleavage was determined as 0.28.

On to U37C C109A, for which the self-cleavage was 0.34.

With A36U A118G, the self-cleavage was found to be 1.05.

Consider A36U C76A, for which the self-cleavage was found to be 0.1.

As for U37A U70C, the self-cleavage was 1.21.

As for U38C U132C, the self-cleavage worked out at 1.64.

Turning to A36U C71U, the self-cleavage worked out at 0.49.

In the case of U37A A116G, the self-cleavage came to 0.18.

For U37A A89G, the self-cleavage turned out to be 0.43.

Turning to U38C G83U, the self-cleavage was found to be 0.43.

For the variant U38C G83A, the self-cleavage came out at 2.15.

As to U37C C81U, the self-cleavage stood at 0.49.

Consider U38C A55G, for which the self-cleavage stood at 0.93.

In the case of U38A A118G, the self-cleavage is 2.73.

U38C G79A: the self-cleavage came to 0.22.

Consider U39A A47G, for which the self-cleavage turned out to be 0.44.

Take U39A A110U: the self-cleavage amounted to 2.06.

On to U39A A110G, for which the self-cleavage was 0.04.

As for U38C U100C, the self-cleavage amounted to 2.28.

For U39A A51G, the self-cleavage stood at 2.15.

As for U39A A64U, the self-cleavage came to 1.87.

As to U39A A64G, the self-cleavage worked out at 0.93.

For the variant U38C C88U, the self-cleavage is 2.51.
